Test results as given in IntAct's records for PubMed 17254968.

B1: Cellular tumor antigen p53 (Mus musculus), P02340 (parent)
chain: MTAMEESQSDISLELPLSQETFSGLWKLLPPEDILPSPHCMDDLLLPQDVEEFFEGPSEALRVSGAPAAQDPVTETPGPVAPAPATPWPLSSFVPSQKTYQGNYGFHLGFLQSGTAKSVMCTYSPPLNKLFCQLAKTCPVQLWVSATPPAGSRVRAMAIYKKSQHMTEVVRRCPHHERCSDGDGLAPPQHLIRVEGNLYPEYLEDRQTFRHSVVVPYEPPEAGSEYTTIHYKYMCNSSCMGGMNRRPILTIITLEDSSGNLLGRDSFEVRVCACPGRDRRTEEENFRKKEVLCPELPPGSAKRALPTCTSASPPQKKKPLDGEYFTLKIRGRKRFEMFRELNEALELKDAHATEESGDSRAHSSYLKTKKGQSTSRHKKTMVKKVGPDSD

Variants of: B1
Details: with mapk5_mouse Mapkapk5, O54992
mapk5_mouse Mapkapk5, O54992, sequence (O54992 whole entry): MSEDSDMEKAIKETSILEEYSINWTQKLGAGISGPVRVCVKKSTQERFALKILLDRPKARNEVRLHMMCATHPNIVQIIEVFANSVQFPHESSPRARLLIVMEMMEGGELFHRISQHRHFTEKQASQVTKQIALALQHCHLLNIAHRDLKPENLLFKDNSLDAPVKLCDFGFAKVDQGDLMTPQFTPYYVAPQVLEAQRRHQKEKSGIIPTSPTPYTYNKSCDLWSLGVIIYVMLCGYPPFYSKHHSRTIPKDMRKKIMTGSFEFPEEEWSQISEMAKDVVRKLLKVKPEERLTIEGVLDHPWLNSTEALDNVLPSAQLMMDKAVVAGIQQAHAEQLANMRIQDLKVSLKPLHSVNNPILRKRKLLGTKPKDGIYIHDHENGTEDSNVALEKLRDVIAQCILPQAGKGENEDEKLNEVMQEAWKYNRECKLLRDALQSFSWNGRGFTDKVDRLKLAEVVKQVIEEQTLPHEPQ

effect of a mutation on the interaction | Variant
disrupting interaction | MTAMEESQSDISLELPLSQETFSGLWKLLPPEDILPDPHCMDDLLLPQDVEEFFEGPSEALRVSGAPAAQDPVTETPGPVAPAPATPWPLSSFVPSQKTYQGNYGFHLGFLQSGTAKSVMCTYSPPLNKLFCQLAKTCPVQLWVSATPPAGSRVRAMAIYKKSQHMTEVVRRCPHHERCSDGDGLAPPQHLIRVEGNLYPEYLEDRQTFRHSVVVPYEPPEAGSEYTTIHYKYMCNSSCMGGMNRRPILTIITLEDSSGNLLGRDSFEVRVCACPGRDRRTEEENFRKKEVLCPELPPGSAKRALPTCTSASPPQKKKPLDGEYFTLKIRGRKRFEMFRELNEALELKDAHATEESGDSRAHSSYLKTKKGQSTSRHKKTMVKKVGPDSD [S37D]
